Measured values: patent US20160017055A1

Target: wild type plasma kallikrein recombinant catalytic domain (Pichia pastoris) (human) (UniProt P03952)
Experiment: enzyme inhibition assay: rate (F/s) of cleavage of a substrate peptide by PKal against [IgG] (nM), fitted to the Morrison equation (apparent Ki); panel 'X115-F02 vs WT'

Ki: 0.09 nM
B1: X115-F02 (antibody, human IgG1, kappa, V domains shown)
VH: EVQLLESGGGLVQPGGSLRLSCAASGFTFSHYIMMWVRQAPGKGLEWVSGIYSSGGITVYADSVKGRFTISRDNSKNTLYLQMNSLRAEDTAVYYCAYRRIGVPRRDEFDIWGQGTMVTVSS
VL: DIQMTQSPSTLSASVGDRVTITCRASQSISSWLAWYQQKPGKAPKLLIYKASTLESGVPSRFSGSGSGTEFTLTISSLQPDDFATYYCQQYNTYWTFGQGTKVEIKR
